Assay results taken from patent US9598687B2.

Target: recombinant human prothrombin (Factor II) (human) (UniProt P00734)

Substance: endoproteinase Lysyl endopeptidase (Lys-C) (tool reagent)
- Lys-C fragments identified by reverse phase UPLC and mass spectrometry (peptide mapping): 25 fragments
